The assay addresses human activated blood coagulation factor X (FXa) (human). The experiment in a line: SPR; […]; 37°C; HBS (10 mM Hepes, 150 mM NaCl, 5 mM CaCl2, 0.005% P20, pH 7.4); Langmuir fit; […].

Chain of human activated blood coagulation factor X (FXa) (human) (P00742 whole entry): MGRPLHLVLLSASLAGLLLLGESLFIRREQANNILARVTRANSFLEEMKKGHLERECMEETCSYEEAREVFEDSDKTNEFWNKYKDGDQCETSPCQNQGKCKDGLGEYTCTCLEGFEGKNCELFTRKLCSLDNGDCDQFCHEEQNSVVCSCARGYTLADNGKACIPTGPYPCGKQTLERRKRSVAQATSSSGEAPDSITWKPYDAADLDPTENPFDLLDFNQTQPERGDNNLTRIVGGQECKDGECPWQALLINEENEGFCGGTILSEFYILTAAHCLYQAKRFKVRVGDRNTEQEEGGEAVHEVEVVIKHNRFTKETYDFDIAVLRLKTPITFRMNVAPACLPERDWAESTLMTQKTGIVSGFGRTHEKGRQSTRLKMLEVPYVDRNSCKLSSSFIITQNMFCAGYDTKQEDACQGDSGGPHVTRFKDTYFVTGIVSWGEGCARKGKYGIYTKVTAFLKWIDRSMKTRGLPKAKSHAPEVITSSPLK

B1: isoform A of ammodytoxin from Vipera ammodytes ammodytes venom (enzyme)
chain: SLLEFGMMILGETGKNPLTSYSFYGCYCGVGGKGTPKDATDRCCFVHDCCYGNLPDCSPKTDRYKYHRENGAIVCGKGTSCENRICECDRAAAICFRKNLKTYNYIYRNYPDFLCKKESEKC
In turn, B1 had a Kd of 30 nM, a koff of 0.007 s⁻¹ and a kon of 220000 M⁻¹ s⁻¹.

B2: Non-pancreatic secreted human group IIA phospholipase A2 (enzyme)
chain: NLVNFHRMIKLTTGKEAALSYGFYGCHCGVGGRGSPKDATDRCCVTHDCCYKRLEKRGCGTKFLSYKFSNSGSRITCAKQDSCRSQLCECDKAAATCFARNKTTYNKKYQYYSNKHCRGSTPRC
Turning to B2, the Kd was found to be 14 nM, the koff was determined as 0.029 s⁻¹ and the kon is 2e+06 M⁻¹ s⁻¹.

Source of the values: PMC2248580.
